Assay results taken from US20240228562A1, “NOVEL LIPOCALIN MUTEINS SPECIFIC FOR CONNECTIVE TISSUE GROWTH FACTOR (CTGF)” (PIERIS PHARMACEUTICALS GMBH, priority 2021, published 2024).

Columns and labels:
CTGF = biological target: T1, CTGF (Homo sapiens, UniProt P29279); experiment: Specificity ELISA (CCN proteins), human CTGF; assay type: binding; settings: coated 1 μg/ml, muteins from 1000 nM
T1 sequence (P29279 27-349): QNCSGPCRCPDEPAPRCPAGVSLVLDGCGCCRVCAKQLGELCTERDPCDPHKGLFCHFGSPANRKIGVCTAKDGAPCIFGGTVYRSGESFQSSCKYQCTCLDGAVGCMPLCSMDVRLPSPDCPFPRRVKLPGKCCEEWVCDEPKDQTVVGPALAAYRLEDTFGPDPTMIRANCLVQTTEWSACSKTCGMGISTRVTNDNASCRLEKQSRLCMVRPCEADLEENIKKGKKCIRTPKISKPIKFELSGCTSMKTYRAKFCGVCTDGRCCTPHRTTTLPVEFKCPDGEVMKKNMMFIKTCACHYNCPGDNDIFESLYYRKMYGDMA
Experimental: (§1) Binding of muteins to closely related proteins of CTGF was tested by an ELISA assay. In detail, a 384-well plate suitable for fluorescence measurements (Greiner FLUOTRAC™ 600, black flat bottom, high-binding) was coated with 20 μl of human CTGF or the other members of the CCN protein family at a concentration of 1 μg/ml in PBS over night at 4° C. After washing with PBS with 0.05% Tween 20, wells were blocked with 100 μl blocking buffer containing 0.1% Tween 20 and 2% BSA (PBS-T/BSA) for 1 h at room temperature. 20 μl of serially diluted muteins starting at 1000 nM were incubated in PBS-T/BSA for 1 h at room temperature (RT).
(§2) The residual supernatants were discarded and 20 μl HRP-labeled anti-NGAL or anti-Strep-Tag antibody was added at a predetermined optimal concentration in PBS-T/BSA and incubated for 1 h at RT. After washing, 20 μl fluorogenic HRP substrate (QuantaBlu, Thermo) was added to each well, and the reaction was allowed to proceed for 2 to 60 minutes. The fluorescence intensity of every well on the plate was read using a fluorescence microplate reader (Tecan). When the signal for human CTGF approached saturation, the cross reactivity to the other proteins was assessed.

huWISP-3 = biological target: T2, huWISP-3 (Homo sapiens, UniProt O95389); experiment: Specificity ELISA (CCN proteins), huWISP-3; assay type: binding; settings: coated 1 μg/ml; assessed when human CTGF signal approached saturation
T2 sequence (O95389 24-354): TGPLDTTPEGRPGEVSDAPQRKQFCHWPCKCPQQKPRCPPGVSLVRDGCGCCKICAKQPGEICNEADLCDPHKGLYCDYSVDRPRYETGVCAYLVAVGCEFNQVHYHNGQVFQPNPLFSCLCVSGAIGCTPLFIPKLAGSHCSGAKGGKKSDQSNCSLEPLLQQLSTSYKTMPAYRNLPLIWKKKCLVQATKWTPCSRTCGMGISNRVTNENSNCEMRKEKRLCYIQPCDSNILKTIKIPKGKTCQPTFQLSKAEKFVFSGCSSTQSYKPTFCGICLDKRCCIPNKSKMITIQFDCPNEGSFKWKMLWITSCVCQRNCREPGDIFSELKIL
Experimental: as §1, §2

huWISP-2 = biological target: T3, huWISP-2 (Homo sapiens, UniProt O76076); experiment: Specificity ELISA (CCN proteins), huWISP-2; assay type: binding; settings: coated 1 μg/ml; assessed when human CTGF signal approached saturation
T3 sequence (O76076 24-250): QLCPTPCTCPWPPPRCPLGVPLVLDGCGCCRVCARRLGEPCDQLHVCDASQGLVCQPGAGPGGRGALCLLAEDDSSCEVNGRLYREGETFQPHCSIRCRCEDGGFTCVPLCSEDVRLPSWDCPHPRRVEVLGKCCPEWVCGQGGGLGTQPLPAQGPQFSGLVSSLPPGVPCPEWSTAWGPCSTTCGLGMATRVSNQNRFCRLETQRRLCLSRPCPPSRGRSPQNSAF
Experimental: as §1, §2

huNOV = biological target: T4, huNOV (Homo sapiens, UniProt P48745); experiment: Specificity ELISA (CCN proteins), huNOV; assay type: binding; settings: coated 1 μg/ml; assessed when human CTGF signal approached saturation
T4 sequence (P48745 32-357): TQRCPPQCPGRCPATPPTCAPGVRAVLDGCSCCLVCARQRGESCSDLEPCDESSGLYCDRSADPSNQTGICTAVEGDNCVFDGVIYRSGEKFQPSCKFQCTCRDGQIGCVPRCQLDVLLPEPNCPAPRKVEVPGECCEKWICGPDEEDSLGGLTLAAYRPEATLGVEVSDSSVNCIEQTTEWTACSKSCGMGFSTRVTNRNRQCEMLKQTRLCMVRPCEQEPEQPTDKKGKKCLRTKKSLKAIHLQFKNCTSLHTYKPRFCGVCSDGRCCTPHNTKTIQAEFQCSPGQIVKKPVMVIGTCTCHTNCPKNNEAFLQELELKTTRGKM
Experimental: as §1, §2

huWISP-1 = biological target: T5, huWISP-1 (Homo sapiens, UniProt O95388); experiment: Specificity ELISA (CCN proteins), huWISP-1; assay type: binding; settings: coated 1 μg/ml; assessed when human CTGF signal approached saturation
T5 sequence (O95388 23-367): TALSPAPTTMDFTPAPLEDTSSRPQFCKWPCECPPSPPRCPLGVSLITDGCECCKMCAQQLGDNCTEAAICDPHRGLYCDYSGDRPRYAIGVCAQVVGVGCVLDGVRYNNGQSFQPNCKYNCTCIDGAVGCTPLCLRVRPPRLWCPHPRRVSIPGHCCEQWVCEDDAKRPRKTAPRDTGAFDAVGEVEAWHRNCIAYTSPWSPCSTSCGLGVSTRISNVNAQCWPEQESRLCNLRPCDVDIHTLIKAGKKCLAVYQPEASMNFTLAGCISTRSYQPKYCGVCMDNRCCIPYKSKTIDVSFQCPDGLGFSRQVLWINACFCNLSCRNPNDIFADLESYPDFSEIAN
Experimental: as §1, §2

[1] = Thermal stability assessment by nanoDSC; assay type: physicochemical; settings: 1 mg/mL in PBS, scan 25-100° C. at 1° C./min
In short: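 CTGF-specific lipocalin muteins at 1 mg/mL in PBS scanned from 25 to 100° C at 1° C/min by capillary nano-DSC. Where several transitions occur, the Tm of the major unfolding event is reported, along with onset temperature. Some muteins were expressed in E. coli, others in CHO cells.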

huCYR61 = biological target: T6, huCYR61 (Homo sapiens, UniProt O00622); experiment: Specificity ELISA (CCN proteins), huCYR61; assay type: binding; settings: coated 1 μg/ml; assessed when human CTGF signal approached saturation
T6 sequence (O00622 25-381): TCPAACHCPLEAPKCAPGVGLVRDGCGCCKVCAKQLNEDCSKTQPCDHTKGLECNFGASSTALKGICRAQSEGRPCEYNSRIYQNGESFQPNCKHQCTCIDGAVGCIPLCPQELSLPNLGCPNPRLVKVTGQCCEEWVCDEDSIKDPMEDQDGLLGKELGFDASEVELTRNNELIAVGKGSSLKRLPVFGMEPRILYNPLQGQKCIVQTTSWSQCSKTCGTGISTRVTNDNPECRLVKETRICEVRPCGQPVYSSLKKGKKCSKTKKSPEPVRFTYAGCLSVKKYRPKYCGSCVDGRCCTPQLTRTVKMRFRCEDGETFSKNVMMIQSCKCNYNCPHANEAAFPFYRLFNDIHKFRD
Experimental: as §1, §2

B1: SEQ ID NO: 76: fusion protein comprising two CTGF-binding lipocalin muteins (protein)
chain: QDSTSDLIPAPPLSKVPLQQNFQDNQFQGKWYVVGLAGNAILREDKQPAKMFATIYELKEDKSYDVTSVRFEAKSCKYTIKTFVPGSQPGEFTAGYIKSAPGQTSTLVRVVSTNYNQHAMVFFKHVTQNREIFVITLYGRTKELTSELKENFIRFSKSLGLPENHIVFPVPIDQCIDGGGGGSGGGGSGGGGSQDSTSDLIPAPPLSKVPLQQNFQDNQFQGKWYVVGWAGNVKLREDKQPLKMSATIYELKEDKSYDVTEVVFEQKKCHYIIKTFVPGSQPGEFTAGDIKSPPGYTSSLVRVVSTNYNQHAMVFFKKVSQNREFFWITLYGRTKELTSELKENFIRFSKSLGLPENHIVFPVPIDQCIDG
modifications: fusion protein
- ELISA binding to HUMAN CTGF (CTGF): Binding
- ELISA binding to huWISP-3 (huWISP-3): No binding
- ELISA binding to huWISP-2 (huWISP-2): No binding
- ELISA binding to huNOV (huNOV): No binding
- ELISA binding to huWISP-1 (huWISP-1): No binding
- ONSET MELTING [1]: 63 °C
- TM ([1]; major transition): 73 °C
- ELISA binding to huCYR61 (huCYR61): No binding
